Data from the nanobody polyreactivity screen of Harvey et al. (2022).

experiment: yeast display, Sf9 membrane polyspecificity reagent, FACS + sequencing; frameworks hold sequencing errors
Method in brief: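 Nanobodies from a synthetic yeast display library (Saccharomyces cerevisiae BJ5465), induced 36–48 hours with galactose, were stained 1 hour at 4 °C with 10% biotinylated, detergent-solubilized Sf9 membrane reagent, enriched on streptavidin microbeads, then FACS-sorted. Anti-HA (expression) and streptavidin (reagent binding) fluorescence set low and high (top ~1%) gates. Polyreactivity labels come from the gate of origin. Genes were colony-PCR amplified, MiSeq 2 × 250 sequenced and filtered by CDR length.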

Sequence	polyreactivity (PSR sort gate)
QVQLVESGGGLVQAGGSLRLSCAASGLIFYLYAMGWYRQAPGKERELVAAITSGGGSTYYADSVKGRFTHSRDHAKNTVYLQMNSLKPEDTGVYYCAARLVLYITVVYEDDYWGQGTQVTVSS	low polyreactivity
QVQLVESGGGLVQAGGSLRLSCAASGSTFFYNAMGWYRKAPGKERELVAAITGSGTRTYYADSVKGRFTISRDNAKNTVYLQMNSLKPEDTAVYYCAKYPHPLKYRGYPSEFDYWGQGTQVTVSS	low polyreactivity
QVQLQVSGGDLVQAGGSLRLSCAASGTIYGLTSMGWYRQAPGKEREFVAAITDGGNTNYADSVKGRFTISRDNAKNSVYLQMISLTPEDTAVYYCALLFSDEAYYAYCGQGTQVTVSS	low polyreactivity
QVQLVESGGGLVQAGGSLRLSCAASGFIFRINAMGWYRQAPGKERELVAAISSSGGSTYYADSVKGRFTISRDNAKNTVYLQMNSLKPEDTAVYYCNAVGTGGYSSEYGYWGQGTQVTVSS	high polyreactivity
QVQLVESGGGLVQAGGSLRLSCAASGRTFSRYAMGWYRQAPGKERELVAAISRSGGITYYADSVKGRFTISRDYAKNTVYLQMNSLKPEDTAVYYCAKVYPRVGYDYWGQGTQVTVSS	high polyreactivity
QVQLVESGGGLVQAGGSLRLSCAASGRIFILYAMGWYRQAPGKERELVATITKSGGNTYYADSVKGRFTISRDNAKNTVYLQMNSLKPEDTAVYYCAAQGRDSTPHGYWGQGTQVTVSS	high polyreactivity
QDQLVESGGGLVQAGGSLRLSCAASGRTFTRYAMGWYRPAPGKERELVAAISKRGGSTYYADSVKGRFTISRDNAKNTVYLQMNSLKPEDTAVYYCAADQPYHDSEYWGQGTQVTVSS	high polyreactivity
QVQLVESGGGLVQAGGSLRLSCAASGLTFAGYAMGWYRQAPGKERELVAAITSGGSTYYADSVKGRFTISRDNAKNTVYLQMNSLKPEDTAVYYCAARRVRKALVGYGYWGQGTQVTVSS	high polyreactivity
QVQLVESGGGLVQAGGSLRLSCAASGLTFQENGMGGYRQAPGKERELVASITTIGGSTYYADSVKGRFTISRDNAKNTVYLQMKSLKPEDTAVYYCAALSPIYATYGHDYWGQGTQVTVSS	low polyreactivity
QVQLVESGGGLVQAGGSLRLSCAASGSTFWSYAMGWYTQAPGKERELVAVITGSDGRTFYADSVKGRFTISRDNAKNTVYLQMNSLKPEDTAVYYCAADAVFRATRYDRSTSEDDYWGQGTQVTVSS	low polyreactivity
QGQLVESGGGLVQAGGSLRLSCAASGSIFEGYVMGWYRQAPGKERELFATISFSGGSTYYADSVKGRFTISRDNAKNTGYLQMNSLKPVDTAVYFCADSVPYKFYSVVSVRYEYWGQGTQVTVSS	low polyreactivity
QVQLVESGGGLVQAGGSLRLSCAASGSTFYHYTMGWYRQAPGKERELVARISRSGGSTYYADSVKGRFTISRDNAKNTVYLQMNSLKPEDTAGYYCNKGSFYGSSQVGGTGYDYWGQGTQVTVSS	low polyreactivity
QVQLVESGGGLVQAGGSLRLSCAASGGIFWYYAMGWYRQAPGKERELVAGISRGGGTYYADSVKGRFTISRDNAKNTVYLQMNSLKPEDTAVYYCAVDGRYAYAYEYWGQGTQVTVSS	low polyreactivity
QVQLVESGGGLVQAGGSLRLSCAASGSIFSGYAMGWYRQAPGKESELVAAISGSGGSTFYADSVKGRFTISRDNAKNTVYLQMISLKPEDTAVYYCAARRIAPFGRYDYWGQGTQVTVSS	low polyreactivity
QVQLVDSGGGLVQAGGSLRITCAASVLTFRRNPMGWYRQAPGKARELLGTITSGGSTNYADTVKGRFTISRDNAKNTVYLQMNSLKPEDTAVYYCNSVHLRIMYYWGQGTQVTVSS	high polyreactivity
QVQLVESGGGIVQAGGSLRLSCAASGRTFYSSAMGWYRQAPGKERALVAAITSDGGTYYADSVKGRFTISRDNAKNTVYLQMNSLKPEDTAVYYCNTRDLYGYPQVTGYDYWGQGSQVTVSS	low polyreactivity
QVQLVESGGGLVQAGGSLRLSCAASGFTFFPNAMGWYRQAPGKERELVADITDGGSTNYADSVKGRFTISRDNAKNTVYLQLNSLKPEDTADYYCNADWYGWFGGYEYWGQGTQVTVSS	high polyreactivity
QVQLVESGGGLVQAGGSLRLSCAASGRTFRKNTMGWYRQAPGKEREFVATISSRGGSTFYADSVKGRFTISRDNAKNTVYLQMNSLKPEDTAVYYCNAVYRYSLKPIYDYWGQGTQVTVSS	high polyreactivity
QVQLVESGGGLVQAGGSLRLSCAASGSTFYLNDMGWYRQAPGKERELVAAIDWSGGSTYYADSVKGRFTISRDNAKNTVYLQMNSLNPEDTAVYYCAARLVYEWRRLDYFIAWDYWGQGTQVTVSS	low polyreactivity
QVQLVESGGGLVQAGGSLRLSCAASGRIFVKNAMGWYRQAPGKERELVAAISRGGSTYYADSEKGRFTISRDNAKITVYLQMNSLKPEDTAVYNCAPGGQGGDFGDDYWGQGTQVTVSS	high polyreactivity
QVQLVESGGGVVQAGGSLRLSCAASARTFYRNAMGWYRQAPGKERELVAAITGSGGSTYYADSVKGRFTISRDNAKNTVYLQMNSLKPEDTAVSYCAAGTRIYNSWIRFDYWGQGTQVTVSS	high polyreactivity
QVQLVESGGGLVQAGGSLRLSCAPSGLIFDANAMGWYRQAPGKERELVAAISNGDSTYYADSVKGRFTISRDNAKNTLYLQMNSLKPEDTAVYYCNARIIYRKWLLRSGTFNYWGQGTQVTVSS	low polyreactivity

Sequence	polyreactivity (PSR sort gate)
QVQLVETGGGLVQAGGSLRLSCASSGFTLRVNDMGWYRQAPGKERELVAGITVSGGSTYYADSVKVRFTISRDNAKNTVYLQMNSLKPEDTAVYYCNADNYENATVMDYWGQGTQVTVSS	low polyreactivity
QVHLVESGGGLVQAGGSLRLSCAASGRIFVFNAMGWYRQAPGKDRELVAAISRSAFSTYYADSVKGRFTISRDNAKNTVYLHMISLIPEDTAVYYCTDERTYWFFWEMDSWGQGTQVTVSS	low polyreactivity
QVQLVESGGGLVQAGGSLRLSCAASGSTFTGYAMGWYRQAPGKERELVAGISVTGGNTYYADSVKGRFTISRDNAKKTVYLQMNSLKPEDTAVYYCNAVVLSYYAGEMDYWGQGTQVTVSS	low polyreactivity
QVQLVESGGGLVQAGGSLRLSCAASGFIFYHYAMGWYRQAPGKRRELVAAISYSGGSTYYADSVKGRFTISRDNGKNTVYLQMNSLKPEDPAVYYCNAVYHTRLYTLSTFDYWGQGTQVTVSS	high polyreactivity
QVQLVESGGGLVQSGGSLRLSCAASGRIFRFYTMGWYRQAPGKERELVAAITQRGGRTYYADSVKGRFTISRDNAKNTVYLQMNSLKPEDTAVYYCAATTTVAEYDYWGQGTQVTVSS	high polyreactivity
QVQLVESGGGLVQAGGSLRLSCAASGSIFNTYAMGWYRQAPGKERELVAAITWSGGSTYYADSVKGRFTISRDNAKNTVYLQRNSLKPEDTAVYDCAARQRRQSYWGQGTQVTVSS	high polyreactivity
QVQLVESGGGLVQAGGSLRLSCAASGRTYVVYAMGWYRQAPGKERELVARFRWRDVSTYYADSVKGRFTISRDNAKNTVYLQMNSLKPEDSAVYYCAARSYTGGGRLYYWGQGTQVTVSS	high polyreactivity
QVQLVESGGGLVQAGCSLRISCSASGRTFIGYAMGSYRQAPGKERELVAAICRSGGSTYYADSVKGRFTISRDNAKNTVYLQMNSLKPEDTAVYYCAKQRRDDNGGYWGQATQVTVSS	high polyreactivity
QVQLVESGGGLVQAGGSLRLSCAASGRTFYYYAMGWYRQAPGKERELVAAISWSGGSTYYADSVKGRFTISRDNAKNTVYLQMNSLKPEDTAVYYCAARLPENSFGLYYYWGQGTQVTVSS	high polyreactivity
QVQLVESGGRLVQAGGSLRLSCAASGRIFDGNAMGWYRQAPGKERELVAAISWTGGSTYYADSVKGRFTISRDNAKNTVYLQMNSLKPEDTAVYYCAADSGWWLDQWSWYDYWGQGTQVTVSS	low polyreactivity
QVQLVESGGGLVQAGGSLRLSCAASGSTFTLYAMGWYRQAPGKERELVATITGSGGSTNYADSVKGRFTISRDNAKNTVYLQMNSLKPEDTAVYYCAADYAVYSFTDFNYWGQGTQVTVSS	high polyreactivity
QVQLVESGGGLVQAGGSLRLSCAASGFTFYFNAMGWYRQAPGKERELVAGITSGGSTNYADSVKGRFTISRDNAKNTVYLQMNSLKPEDTAVYYCATDLLNNVDYDYWGQGTQVTVSS	low polyreactivity
QVQLVESGGGLVQAGGSLRLSCAASGFTFWYYAMGWYRQAPGKEREFVASISWNGGRTYYADSVKGRITISRDNAKNTVYLQMNSLKPEDTAVYYCATRVIYSFTDLKGDYWGQGTLVTVSS	high polyreactivity
QVQLVESGGGLVQAGGSLRLSCAASGLTFQSYVMGWYRPAPGKERELVAAISWSGTRTYFADSVKGRFTISRDNAKNTVYLQMYSLKPEDTAVYSCAADFYTWYEERYWSYNYWGQGTQVTVSS	high polyreactivity
QVQLVESGGGLVQAGGSLRLSCAASGSTFHYYAMGWYRQAPGKERELVAAISKRGGSTYYADSVKGRFTISRDNAKNNVYLQMNSLKPEDTSVYYCAKTWVSYSRYHYEYWGQGTQVTVSS	high polyreactivity
QVQLVESGGGLVQAGGSLRLSCAASGFTFAYYDMGWYRQAPGKERELVAAITWDGGSTYYADSVKGRFTISRDNAKNTVYLQMNSLKPEDTAVYYCAAPSGPYGYDYWGQGTQVTVSS	high polyreactivity
QVQLVESGGGLGHAGGSLRLSCAASGRIYGRNAMGWNRKAQGKERELVAAINSGVSTYYADSVKGRFTISRDNAKNTFYLQMNSLKPEDTAVYYCAKAPQRRYYDFDYWGQGTQVTVSS	low polyreactivity
QVQLVESGGGLVQAGGSLRLICAASGSTFKYNAMGWYRQAPGKERELVAAISSGGSTNYADSVKGRFTISRDNAKNTVYLQMHSLKPEDTAVYYCNAAYNYVTPWYFYWGQGTQVTVSS	high polyreactivity
QVQLVESGGGLVQAGGSRRLSCAASGSTFGWYVMGWYRPAPGKDREFVAAIDNSGGDTYYADSLKGRFTISRDTAKNTVYLQMNSLKPEDTAVYYCDDEAYTRASFENDYWGQGTQVTVSS	low polyreactivity
QVQLVESGGGLVQAGGSLRLSCAASGLIFSYYAMGWYRQAPGKERELVAAISRGGSTNYADSVKGRFTISRDDAKNTVYLQMNSLKPEDTAVYYCAARWQWLNGYYYWGQGTQVTVSS	high polyreactivity
QVQLVESGGGLVQAGGSLLLSCAASGLIFSWNAMGWYRQAPGKERELVASISYSGGRTYYADSVKGRFTISRDNAKNTVYLQMNSLKPEDTAVYYCAADTNATTDPEMDYWGQGTQVTVSS	low polyreactivity
